# Measurements reported in patent US20190248888A1, “METHODS OF LOWERING BLOOD GLUCOSE LEVELS” (Regeneron Pharmaceuticals, Inc., priority 2016, published 2019).
# Tested on: pancreatic islets
# Test: Ki67 staining of cell proliferation in pancreatic islets
# Type: in vivo, mouse
# Excerpt: Ki67 staining was used to detect cell proliferation in pancreatic islets from GCGR-antibody treated mice. Cell proliferation was negligible in islets from control antibody treated mice and in non-Gcg(+) islet cells from GCGR-antibody treated mice (FIG. 3A). However, Ki67 staining was detected in GCG(+) cells from the GCGR-antibody treated mice (FIG. 3A).
molecule,measurement,setting,value
"α-GCGR: potent monoclonal GCGR blocking antibody, HCVR/LCVR SEQ ID NOs: 86/88 (antibody, V domains shown) VH: EVQLVESGGGLVQPGGSLRLSCAASGFTFSNYLMNWVRQAPGKGLEWLANIQEDGIEKYYVDSVKGRFTISRDNAKNSLYLQMNSLRAEDTAVYYCAREPSHYDILTGYDYYYGMDVWGQGTTVTVS VL: DIQMTQSPSSLSASVGDRVTITCRASQGIRNDLGWYQQKPGKAPKRLIYAASSLQSGVPSRFSGSGSGTEFILTVSSLQPEDFATYYCLQYNSNPFTFGPGTKVDIK",proliferation rate in Slc38a5(+) relative to Slc38a5(−) α-cells,"GCGR-antibody treated mice, 11 days",4 times
same,Ki67 staining in GCG(+) cells,mice treated 11 days,detected
